Assay results taken from publication PMC7835884.
Several values for one entry are separate records, joined by “and”; a condition that tells them apart may be missing. Equal values may be shown once.

Assays:
[1] = target: N-terminal 6X-His tagged TfAcCCB (carboxyltransferase subunit of Thermobifida fusca YX acyl-CoA carboxylase) (Thermobifida fusca YX); assay: pull-down; subunits co-expressed in E. coli; Ni-NTA affinity chromatography via the His-tag on TfAcCCB; SDS-PAGE with Coomassie staining and densitometry, or Western blot with anti-S-tag antibody (Figure 1A, 1B)
[2] = target: N-terminal 6X-His tagged TfAcCCB (carboxyltransferase subunit of Thermobifida fusca YX acyl-CoA carboxylase) (Thermobifida fusca YX)
[3] = target: TfAcCCA (biotin carboxylase / biotin carboxyl carrier subunit of Thermobifida fusca YX acyl-CoA carboxylase), without tag (Thermobifida fusca YX); assay: SEC; Ni-NTA purified holoenzyme from co-expression of all three subunits (wild-type or D427I TfAcCCB); Superdex 200 10/300 GL; 100 mM potassium phosphate pH 7.6, 0.75 mM DTT, 1 mM EDTA, 20% glycerol; apparent molecular weights against standards; peaks analysed by SDS-PAGE (Figure 2A, 2B)
[4] = target: N-terminal 6X-His tagged TfAcCCB (carboxyltransferase subunit of Thermobifida fusca YX acyl-CoA carboxylase) (Thermobifida fusca YX); assay: SEC; Ni-NTA purified His-tagged TfAcCCB-TfAcCCE subcomplex or His-tagged TfAcCCA; Superdex 200 10/300 GL; 100 mM potassium phosphate pH 7.6, 0.75 mM DTT, 1 mM EDTA, 20% glycerol; apparent molecular weights against standards (Figure 2C, 2D)
[5] = target: N-terminal 6X-His tagged TfAcCCB (carboxyltransferase subunit of Thermobifida fusca YX acyl-CoA carboxylase) (Thermobifida fusca YX); assay: SEC; Ni-NTA purified holoenzyme from co-expression of all three subunits (wild-type or D427I TfAcCCB); Superdex 200 10/300 GL; 100 mM potassium phosphate pH 7.6, 0.75 mM DTT, 1 mM EDTA, 20% glycerol; apparent molecular weights against standards; peaks analysed by SDS-PAGE (Figure 2A, 2B)

Row | stoichiometry N [1] [molar ratio] | specificity constant (Vmax/Km) of acyl-CoA carboxylation by purified TfAcCCB, made with or without co-expressed TfAcCCE, mixed in vitro with purified TfAcCCA (acetyl-, propionyl- and butyryl-CoA) [2] [fold] | stoichiometry N [3] | stoichiometry N [4] | stoichiometry N [5] | Substance
1 | 1 | 20 |  |  |  | TfAcCCE (non-catalytic subunit of Thermobifida fusca YX acyl-CoA carboxylase), without tag (natural protein)
2 | 1 |  | 3 and 6 and 9 |  |  | TfAcCCA (biotin carboxylase / biotin carboxyl carrier subunit of Thermobifida fusca YX acyl-CoA carboxylase), without tag (enzyme)
3 |  |  |  | 6 and 12 and 18 | 6 and 9 and 3 | N-terminal 6X-His tagged TfAcCCB (carboxyltransferase subunit of Thermobifida fusca YX acyl-CoA carboxylase) (enzyme)
